Test results as given in publication PMC4160250 (PLoS ONE, 2014).

B1: UbP_C (C-terminal part of DC-UbP, residues 129-234), His-tagged (domain or fragment, human, UniProt Q8WUN7 129-234, looked up)
chain: MIEEKSDIETLDIPEPPPNSGYECQLRLRLSTGKDLKLVVRSTDTVFHMKRRLHAAEGVEPGSQRWFFSGRPLTDKMKFEELKIPKDYVVQVIVSQPVQNPTPVEN
notes: 15N-labelled where it is the observed protein of an NMR titration, unlabelled where it is titrated into 15N-UBA1; also called UbL domain of DC-UbP; UbL; source: E. coli, purified (Ni-NTA, Superdex-75)
B2: UbE1, recombinant, purified (enzyme, mouse, UniProt Q02053 1-1058, looked up)
chain: MSSSPLSKKRRVSGPDPKPGSNCSPAQSALSEVSSVPTNGMAKNGSEADIDESLYSRQLYVLGHEAMKMLQTSSVLVSGLRGLGVEIAKNIILGGVKAVTLHDQGTTQWADLSSQFYLREEDIGKNRAEVSQPRLAELNSYVPVTAYTGPLVEDFLSSFQVVVLTNSPLEAQLRVGEFCHSRGIKLVVADTRGLFGQLFCDFGEEMVLTDSNGEQPLSAMVSMVTKDNPGVVTCLDEARHGFETGDFVSFSEVQGMIQLNGCQPMEIKVLGPYTFSICDTSNFSDYIRGGIVSQVKVPKKISFKSLPASLVEPDFVMTDFAKYSRPAQLHIGFQALHQFCALHNQPPRPRNEEDATELVGLAQAVNARSPPSVKQNSLDEDLIRKLAYVAAGDLAPINAFIGGLAAQEVMKACSGKFMPIMQWLYFDALECLPEDKEALTEEKCLPRQNRYDGQVAVFGSDFQEKLSKQKYFLVGAGAIGCELLKNFAMIGLGCGEGGEVVVTDMDTIEKSNLNRQFLFRPWDVTKLKSDTAAAAVRQMNPYIQVTSHQNRVGPDTERIYDDDFFQNLDGVANALDNIDARMYMDRRCVYYRKPLLESGTLGTKGNVQVVIPFLTESYSSSQDPPEKSIPICTLKNFPNAIEHTLQWARDEFEGLFKQPAENVNQYLTDSKFVERTLRLAGTQPLEVLEAVQRSLVLQRPQTWGDCVTWACHHWHTQYCNNIRQLLHNFPPDQLTSSGAPFWSGPKRCPHPLTFDVNNTLHLDYVMAAANLFAQTYGLTGSQDRAAVASLLQSVQVPEFTPKSGVKIHVSDQELQSANASVDDSRLEELKATLPSPDKLPGFKMYPIDFEKDDDSNFHMDFIVAASNLRAENYDISPADRHKSKLIAGKIIPAIATTTAAVVGLVCLELYKVVQGHQQLDSYKNGFLNLALPFFGFSEPLAAPRHQYYNQEWTLWDRFEVQGLQPNGEEMTLKQFLDYFKTEHKLEITMLSQGVSMLYSFFMPAAKLKERLDQPMTEIVSRVSKRKLGRHVRALVLELCCNDESGEDVEVPYVRYTIR
notes: also called purified UbE1; source: E. coli (vector pET28a), purified
B3: His-tagged DC-UbP (natural protein, human, UniProt Q8WUN7 1-234, looked up)
chain: MGGCVGAQHDSSGSLNENSEGTGVALGRNQPLKKEKPKWKSDYPMTDGQLRSKRDEFWDTAPAFEGRKEIWDALKAAAHAFESNDHELAQAIIDGANITLPHGALTECYDELGNRYQLPVYCLAPPINMIEEKSDIETLDIPEPPPNSGYECQLRLRLSTGKDLKLVVRSTDTVFHMKRRLHAAEGVEPGSQRWFFSGRPLTDKMKFEELKIPKDYVVQVIVSQPVQNPTPVEN
notes: DC-UbP / UBTD2, human, full-length; vector pET22b(+); 15N-labelled (M9 medium) in the NMR titrations; also called His6-DC-UbP; full-length DC-UbP; source: E. coli, purified (Ni-NTA, Superdex-75)
B4: GST-fused UFD domain of UbE1 (residues 950-1058) (domain or fragment)
chain: not shown
notes: UbE1, residues 950-1058 (C-terminal Ub-fold domain, UFD), from the UbE1 that was cloned from a mouse cDNA library; vector pGEX-4T-3; also called GST-UFD; C-terminal Ub-fold domain; source: E. coli, purified

Columns and labels:
Conditions in all cases: both partners purified
[1] = biological target: B4; assay: NMR titration; 15N-labelled UbP_N or UbP_C titrated with GST-UFD at a molar ratio of 1:3; peak intensity changes
His-tagged DC-UbP [2] = biological target: B3; assay: NMR titration; 15N-labelled DC-UbP (100 uM) titrated stepwise with unlabelled USP5, UbE1, FH or SCCH; 1H-15N HSQC, 20 mM phosphate, 50 mM NaCl, pH 6.5, 298 K
[3] = biological target: B2; assay: as above
His-tagged DC-UbP [4] = biological target: B3; assay: NMR titration; 15N-labelled DC-UbP (20 uM in Fig. S4C) titrated with GST-UFD, up to 5:1; relative peak intensities

B1
binding result [1]: binds

B2
mean relative peak intensity of the UBD domain of DC-UbP at 1:1 molar ratio (free DC-UbP = 1) (His-tagged DC-UbP [2]): 0.54 | mean relative peak intensity of the UbL domain of DC-UbP at 1:1 molar ratio (free DC-UbP = 1) (His-tagged DC-UbP [2]): 0.39

B3
binding result [3]: binds

B4
mean relative peak intensity of the UBD domain of DC-UbP at 5:1 molar ratio (His-tagged DC-UbP [4]): 0.69 | mean relative peak intensity of the UbL domain of DC-UbP at 5:1 molar ratio (His-tagged DC-UbP [4]): 0.44
